Experimental data: patent US20260297181 (published 2026)
Numbering of substitutions follows the chain as printed. Names may count otherwise.

B1: gsLOV (antibody)
chain: MAQIQLVQSGPELKKPGETVKISCKASGYTFTDYSMHWVKQAPGKGLKWMDWINTETGVPTYADDFKGRFAFSLETSANTAYLQINDLKNEDTATYFCTRGYGKGYFDVWGAGTTVTVSSAKSTPPSVYPLAPGSGGGGSGEFLATTLERIEKNFVITDPRLPDNPIIFASDSFLQLTEYSREEILGRNCRFLQGPETDRATVRKIRDAIDNQTEVTVQLINYTKSGKKFWNLFHLQPMRDQKGDVQYFIGVQLDGTEHVRDAAEREAVMLIKKTAEEIDEAAKELGGGGSQIVLTQSPTIMSASLGERVTMTCTASSSVSSSYLHWYQQKPGSSPKLWIYSTSNLASGVPARFSGSGSGTSYSLTISSMEAEDAATYYCHQYHRSPPTFGAGTKLELKRADAAKL
B2: gsLOV I272E, A276E "light" (antibody)
chain: B1 chain with I272E, A276E
B3: gsLOV C190A "dark" (antibody)
chain: B1 chain with C190A
B4: WT anti-insulin scFv (HB125) (antibody)
chain: MAQIQLVQSGPELKKPGETVKISCKASGYTFTDYSMHWVKQAPGKGLKWMDWINTETGVPTYADDFKGRFAFSLETSANTAYLQINDLKNEDTATYFCTRGYGKGYFDVWGAGTTVTVSSAKSTPPSVYPLAPGSGGGGSGGGGSGGGGSQIVLTQSPTIMSASLGERVTMTCTASSSVSSSYLHWYQQKPGSSPKLWIYSTSNLASGVPARFSGSGSGTSYSLTISSMEAEDAATYYCHQYHRSPPTFGAGTKLELKRADAA
B5: nolinkLOV C185A "dark" (antibody)
chain: MAQIQLVQSGPELKKPGETVKISCKASGYTFTDYSMHWVKQAPGKGLKWMDWINTETGVPTYADDFKGRFAFSLETSANTAYLQINDLKNEDTATYFCTRGYGKGYFDVWGAGTTVTVSSAKSTPPSVYPLAPGSGEFLATTLERIEKNFVITDPRLPDNPIIFASDSFLQLTEYSREEILGRNARFLQGPETDRATVRKIRDAIDNQTEVTVQLINYTKSGKKFWNLFHLQPMRDQKGDVQYFIGVQLDGTEHVRDAAEREAVMLIKKTAEEIDEAAKELQIVLTQSPTIMSASLGERVTMTCTASSSVSSSYLHWYQQKPGSSPKLWIYSTSNLASGVPARFSGSGSGTSYSLTISSMEAEDAATYYCHQYHRSPPTFGAGTKLELKRADAAKL
B6: nolinkLOV (antibody)
chain: B5 chain with A185C
B7: nolinkLOV I267E, A271E "light" (antibody)
chain: B5 chain with A185C, I267E, A271E

Molecular target: T1, insulin (human, UniProt P01308)
T1 sequence (P01308 25-54, chain 1 of 2): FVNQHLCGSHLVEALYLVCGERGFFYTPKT
T1 sequence (P01308 90-110, chain 2 of 2): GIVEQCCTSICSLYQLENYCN
Assay: BLI

| Kd [nM] | Binder |
| --- | --- |
| 100 | B1 |
| 63.8 | B2 |
| 104 | B3 |
| 55.2 | B4 |

Molecular target: T1, insulin
Assay: BLI
Remark: another data set of the same source

| Kd [nM] | Binder |
| --- | --- |
| 198 | B5 |
| 78.5 | B6 |
| 68.7 | B7 |
| 55.2 | B4 |
